The target in the test is tapasin-ERp57 heterodimer, endogenous (human (endogenous in human cell lines)) (UniProt O15533). As to the kind of experiment: co-IP.
Sequence of UniProt O15533 (O15533 21-448, chain 1 of 2): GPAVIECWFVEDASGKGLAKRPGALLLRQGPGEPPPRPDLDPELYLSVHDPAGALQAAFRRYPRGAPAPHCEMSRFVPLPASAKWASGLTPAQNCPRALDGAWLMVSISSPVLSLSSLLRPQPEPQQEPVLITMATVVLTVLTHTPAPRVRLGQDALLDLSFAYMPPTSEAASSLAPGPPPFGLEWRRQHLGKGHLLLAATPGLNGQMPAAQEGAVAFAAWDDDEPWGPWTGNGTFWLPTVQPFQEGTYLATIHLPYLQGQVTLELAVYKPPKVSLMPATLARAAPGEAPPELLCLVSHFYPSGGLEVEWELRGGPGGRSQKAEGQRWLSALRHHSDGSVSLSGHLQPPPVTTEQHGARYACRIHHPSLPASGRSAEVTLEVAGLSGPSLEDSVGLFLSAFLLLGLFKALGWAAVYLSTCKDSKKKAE
Sequence of UniProt O15533 (P30101 25-505, chain 2 of 2, further chain): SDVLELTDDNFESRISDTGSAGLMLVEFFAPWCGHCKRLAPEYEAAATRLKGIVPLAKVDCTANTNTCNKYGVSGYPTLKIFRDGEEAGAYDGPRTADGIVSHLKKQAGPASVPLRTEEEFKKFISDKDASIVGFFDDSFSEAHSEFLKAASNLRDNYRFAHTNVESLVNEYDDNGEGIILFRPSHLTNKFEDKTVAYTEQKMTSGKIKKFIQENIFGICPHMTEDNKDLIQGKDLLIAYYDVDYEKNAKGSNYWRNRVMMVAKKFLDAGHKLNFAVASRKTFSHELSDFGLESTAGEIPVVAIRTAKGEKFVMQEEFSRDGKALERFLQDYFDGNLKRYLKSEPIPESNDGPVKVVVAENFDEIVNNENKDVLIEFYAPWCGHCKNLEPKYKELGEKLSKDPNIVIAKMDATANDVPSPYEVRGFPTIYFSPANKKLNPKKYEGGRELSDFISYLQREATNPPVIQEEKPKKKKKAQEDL

Substance “CFP-tagged HLA-A2 (from UniProt P61769 21-119) (complex)” came in with a percent of HLA-A2-CFP precipitated by PaSta1 alone (HeLaM.A2-CFP cells) of 20%.
Substance “HLA-C4, endogenous in C1R cells (from UniProt P61769 21-119) (complex)” showed a percent of PLC-associated HLA-C4 precipitated by PaSta1 alone (C1R.A2-His cells) of 60%.
“endogenous MHC I of HeLaM cells (HLA-A6802, -B1503 and -C1203) (from UniProt P61769 21-119) (complex)”: the percent of endogenous MHC I precipitated by PaSta1 alone (HeLaM.A2-CFP cells) turned out to be 60%.

The values are drawn from PMC3438949.
